Results published in patent publication US8252554B2, “Halohydrin dehalogenases and related polynucleotides” (Codexis, Inc., priority 2003, dated 2012).

Experiment: Example 7 manufacture of ethyl (R)-4-cyano-3-hydroxybutyrate with HHDH cell lysate
Type: biochemical
Conditions: 40° C., pH 7, 17 hours
Method: To a 3-necked jacketed 3 L flask equipped with a mechanical stirrer and connected to an automatic titrater by a pH electrode and a feeding tube for addition of base, was charged H2O (1200 mL), NaCN (37.25 g) and NaH2PO4 (125 g) to bring the solution to pH 7. The water circulator was set to 40° C. After 10 minutes, halohydrin dehalogenase of SEQ ID NO: 32 as cell lysate (250 mL) was added. The reaction mixture was allowed to stir for 5 minutes. Using an addition funnel, ethyl (S)-4-chloro-3-hydroxybutyrate (45 g) was slowly added over 1 hour. The pH was maintained at 7 by the automatic titrater by the addition of 10 M NaOH (27 mL) over 17 hours. […] Celite™ (16 g) was added to the flask, which was then connected to a diaphragm pump, whose exhaust is bubbled into 5M NaOH (200 mL), to remove HCN. The mixture was heated to 60° C. under 100 mm Hg pressure. After 1 hour, a submerged air bubbler was added to the solution to aid the removal of the HCN. After 3 hours, an HCN detector indicated less than 5 ppm HCN in the off-gas. The mixture was allowed to cool to room temperature, then filtered through a Celite™ pad. […] Enantiomeric composition can be readily characterized by using the gas chromatography method described in Example 6, above, and using methods that are known in the art.

B1: SEQ ID NO: 32: native halohydrin dehalogenase from Agrobacterium radiobacter AD1 (hheC), expressed from SEQ ID NO. 31 (protein)
chain: MSTAIVTNVKHFGGMGSALRLSEAGHTVACHDESFKQKDELEAFAETYPQLKPMSEQEPAELIEAVTSAYGQVDVLVSNDIFAPEFQPIDKYAVEDYRGAVEALQIRPFALVNAVASQMKKRKSGHIIFITSATPFGPWKELSTYTSARAGACTLANALSKELGEYNIPVFAIGPNYLHSEDSPYFYPTEPWKTNPEHVAHVKKVTALQRLGTQKELGELVAFLASGSCDYLTGQVFWLAGGFPMIERWPGMPE
For B1, which “conversion to product by gas chromatography” value is on record?
The value was “complete conversion to product”.
